Data from patent publication US20160347802A1.

Columns and labels:
Islr2, AVEXIS protein = experiment: method not stated; the filers' own unpublished determination ('in preparation'), used to calibrate the AVEXIS screen
[1] = biological target: human Netrin-3, AVEXIS protein (human) (UniProt O00634); experiment: AVEXIS, prey on bait NTN3; white = No binding
[2] = biological target: human Netrin1, recombinant AVEXIS protein (biotinylated when immobilised) (human) (UniProt O95631); experiment: AVEXIS, prey on bait NTN1; dark = Binding
[3] = biological target: biotinylated recombinant human UNC5B (human) (UniProt Q8IZJ1); experiment: AVEXIS, prey on bait UNC5B; white = No binding
[4] = biological target: human Netrin-4, AVEXIS protein (human) (UniProt Q9HB63); experiment: AVEXIS, prey on bait NTN4; white = No binding
Chain of human Netrin-4, AVEXIS protein (human) (Q9HB63 19-628): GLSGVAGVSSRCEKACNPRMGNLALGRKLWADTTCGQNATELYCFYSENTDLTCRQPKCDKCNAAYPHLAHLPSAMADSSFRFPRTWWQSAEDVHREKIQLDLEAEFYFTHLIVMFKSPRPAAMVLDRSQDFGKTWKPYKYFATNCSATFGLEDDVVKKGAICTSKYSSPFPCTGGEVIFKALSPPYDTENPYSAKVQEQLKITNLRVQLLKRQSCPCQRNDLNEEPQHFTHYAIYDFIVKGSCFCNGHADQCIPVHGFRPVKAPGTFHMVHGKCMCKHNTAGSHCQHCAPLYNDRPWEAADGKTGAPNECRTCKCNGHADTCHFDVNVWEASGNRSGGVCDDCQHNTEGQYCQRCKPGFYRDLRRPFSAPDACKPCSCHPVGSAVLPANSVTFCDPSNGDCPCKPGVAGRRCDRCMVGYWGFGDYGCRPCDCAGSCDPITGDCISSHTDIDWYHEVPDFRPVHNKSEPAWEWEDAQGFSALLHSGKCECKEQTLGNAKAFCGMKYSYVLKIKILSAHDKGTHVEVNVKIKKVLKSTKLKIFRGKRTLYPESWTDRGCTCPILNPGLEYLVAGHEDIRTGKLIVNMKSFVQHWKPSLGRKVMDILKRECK

[5] = biological target: human Netrin-G1, AVEXIS protein (human) (UniProt Q9Y2I2); experiment: AVEXIS, prey on bait NTNG1; white = No binding
Chain of human Netrin-G1, AVEXIS protein (human) (Q9Y2I2 29-510): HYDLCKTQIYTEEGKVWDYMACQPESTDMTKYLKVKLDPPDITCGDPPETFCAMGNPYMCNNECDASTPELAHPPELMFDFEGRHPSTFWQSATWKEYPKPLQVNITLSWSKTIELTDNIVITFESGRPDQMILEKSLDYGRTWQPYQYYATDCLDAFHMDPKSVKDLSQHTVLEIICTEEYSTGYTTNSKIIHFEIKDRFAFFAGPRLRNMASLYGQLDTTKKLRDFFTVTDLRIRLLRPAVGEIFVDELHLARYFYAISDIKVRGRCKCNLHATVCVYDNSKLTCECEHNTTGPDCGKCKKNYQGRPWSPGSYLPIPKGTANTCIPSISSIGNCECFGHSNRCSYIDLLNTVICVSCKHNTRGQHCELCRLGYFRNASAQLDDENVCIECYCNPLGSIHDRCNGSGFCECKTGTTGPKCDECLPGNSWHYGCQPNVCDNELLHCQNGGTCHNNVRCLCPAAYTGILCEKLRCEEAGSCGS

[6] = biological target: biotinylated recombinant human DCC (human) (UniProt P43146); experiment: AVEXIS, prey on bait DCC; white = No binding
[7] = biological target: human DRAXIN, AVEXIS prey or bait protein (human) (UniProt Q8NBI3); experiment: AVEXIS, prey on bait DRAXIN; white = No binding
Chain of human DRAXIN, AVEXIS prey or bait protein (human) (Q8NBI3 26-349): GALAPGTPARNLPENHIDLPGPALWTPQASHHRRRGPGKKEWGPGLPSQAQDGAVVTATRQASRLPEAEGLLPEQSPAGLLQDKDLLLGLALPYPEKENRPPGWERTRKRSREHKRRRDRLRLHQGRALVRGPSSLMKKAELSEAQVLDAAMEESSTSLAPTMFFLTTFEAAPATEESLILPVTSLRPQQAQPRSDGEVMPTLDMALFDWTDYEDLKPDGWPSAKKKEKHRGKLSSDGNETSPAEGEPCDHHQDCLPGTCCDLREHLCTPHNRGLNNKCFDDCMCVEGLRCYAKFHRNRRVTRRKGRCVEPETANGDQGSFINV

[8] = biological target: Matn4 ECD, mono-biotinylated bait protein (positive control); experiment: AVEXIS, prey on bait Matn4 (+), positive control for the prey; dark = Binding
[9] = biological target: human Netrin-G2, AVEXIS protein (human) (UniProt Q96CW9); experiment: AVEXIS, prey on bait NTNG2; white = No binding
Chain of human Netrin-G2, AVEXIS protein (human) (Q96CW9 18-507): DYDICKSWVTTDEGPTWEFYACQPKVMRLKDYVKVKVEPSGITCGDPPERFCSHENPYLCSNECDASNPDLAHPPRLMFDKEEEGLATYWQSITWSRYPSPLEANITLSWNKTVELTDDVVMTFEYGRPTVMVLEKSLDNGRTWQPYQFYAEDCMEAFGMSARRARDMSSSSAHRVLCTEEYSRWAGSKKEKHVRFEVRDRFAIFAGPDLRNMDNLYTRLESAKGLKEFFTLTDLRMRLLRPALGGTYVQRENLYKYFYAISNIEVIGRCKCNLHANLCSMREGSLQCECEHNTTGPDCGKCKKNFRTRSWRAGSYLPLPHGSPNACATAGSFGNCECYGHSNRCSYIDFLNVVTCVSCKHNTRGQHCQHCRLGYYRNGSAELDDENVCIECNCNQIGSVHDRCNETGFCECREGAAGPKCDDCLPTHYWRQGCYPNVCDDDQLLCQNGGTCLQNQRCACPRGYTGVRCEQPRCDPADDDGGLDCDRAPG

[10] = biological target: human DRAXIN 21 amino acid Netrin binding fragment, AVEXIS prey or bait protein (human); experiment: AVEXIS, prey on bait DRAXIN 21aa; white = No binding
Chain of human DRAXIN 21 amino acid Netrin binding fragment, AVEXIS prey or bait protein (human) (peptide, as listed by the source): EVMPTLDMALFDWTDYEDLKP

[11] = biological target: zebrafish Netrin1a, AVEXIS bait or prey protein (zebrafish); experiment: AVEXIS, prey on bait zNetrin1a, upper value; grey = Weak binding
[12] = biological target: zebrafish Netrin1a, AVEXIS bait or prey protein (zebrafish); experiment: AVEXIS, prey on bait zNetrin1a, lower value; grey = Weak binding
[13] = biological target: zebrafish DraxinB, AVEXIS protein (zebrafish); experiment: AVEXIS, prey on bait zDraxinB, lower value; black = Binding
[14] = biological target: zebrafish DraxinA, AVEXIS prey or bait protein (zebrafish) (UniProt Q4V9H3); experiment: AVEXIS, prey on bait zDraxinA, lower value; black = Binding
Chain of zebrafish DraxinA, AVEXIS prey or bait protein (zebrafish) (Q4V9H3 other isoform, or with tags, fused parts or gaps): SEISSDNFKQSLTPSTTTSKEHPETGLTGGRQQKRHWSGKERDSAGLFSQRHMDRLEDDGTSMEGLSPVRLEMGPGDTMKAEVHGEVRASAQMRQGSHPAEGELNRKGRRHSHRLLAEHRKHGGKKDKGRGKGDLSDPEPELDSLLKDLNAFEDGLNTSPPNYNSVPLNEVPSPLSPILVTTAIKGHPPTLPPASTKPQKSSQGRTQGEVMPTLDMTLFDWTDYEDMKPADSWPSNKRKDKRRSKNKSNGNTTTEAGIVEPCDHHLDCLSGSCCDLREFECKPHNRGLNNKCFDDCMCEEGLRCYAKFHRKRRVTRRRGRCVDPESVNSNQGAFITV

[15] = biological target: human Netrin1, recombinant AVEXIS protein (biotinylated when immobilised) (human) (UniProt O95631); experiment: AVEXIS, prey on bait hNETRIN1, lower value; white = No binding
[16] = biological target: zebrafish DraxinA, AVEXIS prey or bait protein (zebrafish) (UniProt Q4V9H3); experiment: AVEXIS, prey on bait zDraxinA, upper value; black = Binding
[17] = biological target: zebrafish Netrin1a, AVEXIS bait or prey protein (zebrafish); experiment: AVEXIS, prey on bait zNetrin1a, upper value; white = No binding
[18] = biological target: human Netrin1, recombinant AVEXIS protein (biotinylated when immobilised) (human) (UniProt O95631); experiment: AVEXIS, prey on bait hNETRIN1, upper value; white = No binding
[19] = biological target: human DRAXIN, AVEXIS prey or bait protein (human) (UniProt Q8NBI3); experiment: AVEXIS, prey on bait hDRAXIN, upper value; black = Binding
[20] = biological target: human DRAXIN, AVEXIS prey or bait protein (human) (UniProt Q8NBI3); experiment: AVEXIS, prey on bait hDRAXIN, lower value; black = Binding
[21] = biological target: zebrafish Netrin1a, AVEXIS bait or prey protein (zebrafish); experiment: AVEXIS, prey on bait zNetrin1a, lower value; white = No binding
[22] = biological target: zebrafish DraxinB, AVEXIS protein (zebrafish); experiment: AVEXIS, prey on bait zDraxinB, upper value; black = Binding

Chain of human Netrin-3, AVEXIS protein, O00634 28-580 (ligand; other documents disagree on this pair) (O00634 28-580): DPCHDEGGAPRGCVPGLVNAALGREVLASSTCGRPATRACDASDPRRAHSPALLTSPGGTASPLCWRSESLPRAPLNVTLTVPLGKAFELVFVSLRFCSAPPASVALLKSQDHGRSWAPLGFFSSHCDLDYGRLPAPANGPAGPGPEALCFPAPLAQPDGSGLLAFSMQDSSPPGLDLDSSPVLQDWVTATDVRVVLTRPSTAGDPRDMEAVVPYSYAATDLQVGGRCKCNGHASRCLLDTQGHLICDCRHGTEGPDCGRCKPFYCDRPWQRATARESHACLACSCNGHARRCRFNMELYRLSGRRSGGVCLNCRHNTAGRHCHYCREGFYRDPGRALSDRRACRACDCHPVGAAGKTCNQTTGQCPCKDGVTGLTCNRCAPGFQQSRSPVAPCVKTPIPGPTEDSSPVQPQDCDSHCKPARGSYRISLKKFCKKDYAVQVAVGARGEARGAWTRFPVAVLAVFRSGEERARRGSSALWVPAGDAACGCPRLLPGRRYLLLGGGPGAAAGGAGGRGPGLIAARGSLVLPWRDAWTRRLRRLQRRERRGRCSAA
Chain of human Netrin-3, AVEXIS protein (human) (O00634 28-580): as above

## Vasn (Slit-like2), AVEXIS protein
Islr2, AVEXIS protein
  Kd: 12 µM
  half-life (t½): 0.16 s

## biotinylated recombinant human DCC (from UniProt P43146 26-1097) (receptor)
[1]
  A486nm: 0.076
[2]
  A486nm: 0.377
[3]
  A486nm: 0.062
[4]
  A486nm: 0.064
[5]
  A486nm: 0.065
[6]
  A486nm: 0.065
[7]
  A486nm: 0.064
[8]
  A486nm: 0.278
[9]
  A486nm: 0.061
[10]
  A486nm: 0.062

## biotinylated recombinant human UNC5B (from UniProt Q8IZJ1 27-377) (receptor)
[6]
  A486nm: 0.064

## human Netrin-3, AVEXIS protein (from UniProt O00634 28-580) (ligand)
[6]
  A486nm: 0.067

## human Netrin-3, AVEXIS protein, O00634 28-580 (ligand; other documents disagree on this pair)
[3]
  A486nm: 0.066

## zebrafish DraxinB, AVEXIS protein (ligand)
[11]
  A486nm: 0.103
[12]
  A486nm: 0.084

## zebrafish Netrin1a, AVEXIS bait or prey protein (ligand)
[13]
  A486nm: 0.174
[14]
  A486nm: 0.276
[15]
  A486nm: 0.059
[16]
  A486nm: 0.323
[17]
  A486nm: 0.064
[18]
  A486nm: 0.064
[19]
  A486nm: 0.136
[20]
  A486nm: 0.249
[21]
  A486nm: 0.063
[22]
  A486nm: 0.235
